Experimental data as given in article PMC5198506, “Mechanistic differences between HIV-1 and SIV nucleocapsid proteins and cross-species HIV-1 genomic RNA recognition”.

Tests used:
SIV NC (SIVmne) [1] = test: fluorescence anisotropy salt titration; conditions: FA: 20 mM HEPES pH 7.5, 30-750 mM NaCl, 1 mM MgCl2, 20 µM TCEP, 5 mM 2-mercaptoethanol, room temperature, 400 nM NC, 10 nM RNA (Gag: 20 nM RNA, plus 2 mM …)
HIV-1 NC (HIV-1 NL4-3) [2] = target: HIV-1 NC (HIV-1 NL4-3) (UniProt P12493); test: fluorescence anisotropy salt titration; conditions: FA: 20 mM HEPES pH 7.5, 30-750 mM NaCl, 1 mM MgCl2, 20 µM TCEP, 5 mM 2-mercaptoethanol, room temperature, 400 nM NC, 10 nM RNA (Gag: 20 nM RNA, plus 2 mM …)
SIV NC (SIVmne) [3] = test: single-molecule DNA stretching; conditions: FA: 20 mM HEPES pH 7.5, 30-750 mM NaCl, 1 mM MgCl2, 20 µM TCEP, 5 mM 2-mercaptoethanol, room temperature, 400 nM NC, 10 nM RNA (Gag: 20 nM RNA, plus 2 mM …)
HIV-1 NC (HIV-1 NL4-3) [4] = target: HIV-1 NC (HIV-1 NL4-3) (UniProt P12493); test: single-molecule DNA stretching; conditions: FA: 20 mM HEPES pH 7.5, 30-750 mM NaCl, 1 mM MgCl2, 20 µM TCEP, 5 mM 2-mercaptoethanol, room temperature, 400 nM NC, 10 nM RNA (Gag: 20 nM RNA, plus 2 mM …)
HIV-1 NC [5] = target: T1, HIV-1 NC (HIV-1 NL4-3, UniProt P12493 378-432); test: fluorescence anisotropy salt titration; Kd(1M) extrapolated to 1 M NaCl; Zeff 2.4 ± 0.4; FA: 20 mM HEPES pH 7.5, 30-750 mM NaCl, 1 mM MgCl2, 20 µM TCEP, 5 mM 2-mercaptoethanol, room temperature, 400 nM NC, 10 nM RNA (Gag: 20 nM RNA, plus 2 mM Tris-HCl pH 7.4); stretching buffer not in material; conditions: protein: recombinant; label: 3' fluorescein (thiosemicarbazide); hairpin
HIV-1 NC [6] = target: T1, HIV-1 NC; test: fluorescence anisotropy salt titration; Kd(1M) extrapolated to 1 M NaCl; Zeff 2.6 ± 0.4; FA: 20 mM HEPES pH 7.5, 30-750 mM NaCl, 1 mM MgCl2, 20 µM TCEP, 5 mM 2-mercaptoethanol, room temperature, 400 nM NC, 10 nM RNA (Gag: 20 nM RNA, plus 2 mM Tris-HCl pH 7.4); stretching buffer not in material; conditions: protein: recombinant; label: 3' fluorescein (thiosemicarbazide); hairpin
HIV-1 NC [7] = target: T1, HIV-1 NC; test: fluorescence anisotropy salt titration; Kd(1M) extrapolated to 1 M NaCl; Zeff 3.6 ± 0.9; FA: 20 mM HEPES pH 7.5, 30-750 mM NaCl, 1 mM MgCl2, 20 µM TCEP, 5 mM 2-mercaptoethanol, room temperature, 400 nM NC, 10 nM RNA (Gag: 20 nM RNA, plus 2 mM Tris-HCl pH 7.4); stretching buffer not in material; conditions: protein: recombinant; label: 3' fluorescein (thiosemicarbazide); stem-loops

## AGUCGCUCUGCGGAGAGGCUGGCAGAUUGAGCCCUGGGAGGUUCUCUCCAGCACUAGCAGGUAGAGCCUGGGUGUUCCCUGCUAGACUCUCACCAGCACUUGGCCGGUGCUGGGCAGAGUGACU [SIV TAR RNA]
SIV NC (SIVmne) [1]
  Kd: 62 µM

## CCACGACGGAGUGCUCCUAUAAAGACGCGGGUCGGUACCAGACGGCGUGAGGAGCGGGAGAGGAAGAGGCCUCCGGUUGCAGGUAAGUGCAACACAAAAAAGAAAUAGCUGUCUUUUAUCCAGGAAGGGGUAAUAAGAUAGAGUGG [SIV Psi RNA (WT)]
SIV NC (SIVmne) [1]
  Kd: 72 µM

## GGUCUCUCUGGUUAGACCAGAUCUGAGCCUGGGAGCUCUCUGGCUAACUAGGGAACCCACUGCUUAAGCCUCAAUAAAGCUUGCCUUGAGUGCUCAAAGUAGUG [HIV-1 TARpolyA RNA]
SIV NC (SIVmne) [1]
  Kd: 82 µM

## HIV-1 Psi RNA (WT)
SIV NC (SIVmne) [1]
  Kd: 3.9 µM
HIV-1 NC (HIV-1 NL4-3) [2]
  Kd: 4 µM

## dsDNA used for single-molecule stretching
SIV NC (SIVmne) [3]
  Kd: 0.0055 µM
HIV-1 NC (HIV-1 NL4-3) [4]
  Kd: 0.0042 µM

B1: HIV-1 TARpolyA RNA (structured_RNA)
RNA: GGUCUCUCUGGUUAGACCAGAUCUGAGCCUGGGAGCUCUCUGGCUAACUAGGGAACCCACUGCUUAAGCCUCAAUAAAGCUUGCCUUGAGUGCUCAAAGUAGUG
HIV-1 NC [5]
  Kd: 120 µM

B2: SIV TAR RNA (structured_RNA)
RNA: AGUCGCUCUGCGGAGAGGCUGGCAGAUUGAGCCCUGGGAGGUUCUCUCCAGCACUAGCAGGUAGAGCCUGGGUGUUCCCUGCUAGACUCUCACCAGCACUUGGCCGGUGCUGGGCAGAGUGACU
HIV-1 NC [6]
  Kd: 81 µM

B3: SIV Psi RNA (WT) (structured_RNA)
RNA: CCACGACGGAGUGCUCCUAUAAAGACGCGGGUCGGUACCAGACGGCGUGAGGAGCGGGAGAGGAAGAGGCCUCCGGUUGCAGGUAAGUGCAACACAAAAAAGAAAUAGCUGUCUUUUAUCCAGGAAGGGGUAAUAAGAUAGAGUGG
HIV-1 NC [7]
  Kd: 100 µM
